Laboratory results published in patent EP4653453A1.

Target: single antigen M1 peptide segment (monkeypox virus M1 protein) (Monkeypox virus isolate MPXV_USA_2022_MA001) (UniProt M1LBP0)
Test: SPR

Sequence of UniProt M1LBP0 (M1LBP0 2-181 limits assumed): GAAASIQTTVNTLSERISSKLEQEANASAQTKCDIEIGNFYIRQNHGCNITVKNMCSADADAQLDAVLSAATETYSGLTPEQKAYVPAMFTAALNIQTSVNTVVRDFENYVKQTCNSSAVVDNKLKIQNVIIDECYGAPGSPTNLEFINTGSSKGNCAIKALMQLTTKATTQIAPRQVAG

In the case of neutralizing antibody 7D11, the Kd is reported as 3.3 nM.
